Measured values taken from the RNAGym collection of RNA variant scans (doi:10.7554/elife.90254).

B1: OR4K15 (parent)
chain: GUUAACGGUCAUAGGCCAUGGAAACUAGGAGCACCAUUUCGCUGCCAGUGAAGAAAUGAACAAAGAAAAUCUGGGCCAGGCAGGCAUCAAAAGAAAUAGUCUUGCGCUCAACCAGAAAGUCUGUAAUCAUUUUAAGGGUA

Variants of: B1
Test: self-cleavage, relative activity (ratio to wild type); higher = more cleavage; in vitro, sequencing; the parent is a self-cleaving ribozyme

Question: Which self-cleavage does the source give for G7U U108A here?
Answer: 0.06

Question: Which self-cleavage does the source give for A5U U38C here?
Answer: 1.27

Question: With C6A A66G as the variant, how does the self-cleavage read?
Answer: 1.23

Question: With C6U G79U as the variant, how does the self-cleavage read?
Answer: 0.11

Question: Which self-cleavage does the source give for G7A U139C here?
Answer: 1.82

Question: With U9C A111G as the variant, how does the self-cleavage read?
Answer: 0.02

Question: With U9C A111U as the variant, how does the self-cleavage read?
Answer: 0.09

Question: For C6U G20U, which self-cleavage is on record?
Answer: 1.06

Question: With G7U A59G as the variant, how does the self-cleavage read?
Answer: 0.98

Question: For U9A G58U, which self-cleavage is on record?
Answer: 0.65

Question: Which self-cleavage does the source give for A5G U127C here?
Answer: 0.8

Question: Which self-cleavage does the source give for A5G U127A here?
Answer: 2.43

Question: For G7U A135U, which self-cleavage is on record?
Answer: 2.23

Question: For G7U G104A, which self-cleavage is on record?
Answer: 0.05

Question: Which self-cleavage does the source give for U9C A55U here?
Answer: 1.16

Question: With A5U A33C as the variant, how does the self-cleavage read?
Answer: 1.62

Question: For A5U A33G, which self-cleavage is on record?
Answer: 0.69

Question: Which self-cleavage does the source give for C6A A110G here?
Answer: 0.08

Question: For A5U U43C, which self-cleavage is on record?
Answer: 1.2

Question: For A5U U43G, which self-cleavage is on record?
Answer: 1.19

Question: With C6U C77U as the variant, how does the self-cleavage read?
Answer: 0.34

Question: With U9C C34U as the variant, how does the self-cleavage read?
Answer: 1.01

Question: Which self-cleavage does the source give for G7A G137U here?
Answer: 2.13

Question: For G8A U103C, which self-cleavage is on record?
Answer: 1.61

Question: Which self-cleavage does the source give for G8A U103G here?
Answer: 0.03

Question: For G7A A86G, which self-cleavage is on record?
Answer: 0.94

Question: For A5U A18G, which self-cleavage is on record?
Answer: 1.83

Question: Which self-cleavage does the source give for G7C U72A here?
Answer: 0.38

Question: With U9C A82U as the variant, how does the self-cleavage read?
Answer: 0.35

Question: For U9C A82G, which self-cleavage is on record?
Answer: 0.58

Question: For C6U U102A, which self-cleavage is on record?
Answer: 1.22

Question: For C6A A68G, which self-cleavage is on record?
Answer: 1.14

Question: Which self-cleavage does the source give for G7U A60U here?
Answer: 2.4

Question: Which self-cleavage does the source give for G8A U9C here?
Answer: 1.16

Question: For C6U G80A, which self-cleavage is on record?
Answer: 0.22

Question: Which self-cleavage does the source give for A5U A30U here?
Answer: 1.11

Question: For G7U A47G, which self-cleavage is on record?
Answer: 1.17

Question: With A5U A23U as the variant, how does the self-cleavage read?
Answer: 1.56

Question: With C6A A117G as the variant, how does the self-cleavage read?
Answer: 0.6

Question: With U9C C40A as the variant, how does the self-cleavage read?
Answer: 1.25

Question: With U9C A23C as the variant, how does the self-cleavage read?
Answer: 1.27

Question: For U9C A23U, which self-cleavage is on record?
Answer: 1.07

Question: For G8U A94G, which self-cleavage is on record?
Answer: 1.98

Question: Which self-cleavage does the source give for G7A U12C here?
Answer: 1.33

Question: With U9C A30G as the variant, how does the self-cleavage read?
Answer: 1.13

Question: Which self-cleavage does the source give for A5U A66G here?
Answer: 1.27

Question: With C6A U122C as the variant, how does the self-cleavage read?
Answer: 0.29

Question: With G8U A23G as the variant, how does the self-cleavage read?
Answer: 1.93

Question: With C6U A125C as the variant, how does the self-cleavage read?
Answer: 1

Question: For U9C A89G, which self-cleavage is on record?
Answer: 1.45

Question: For U9C A89U, which self-cleavage is on record?
Answer: 1.25

Question: For A5G U139A, which self-cleavage is on record?
Answer: 1.6

Question: Which self-cleavage does the source give for A5G U139C here?
Answer: 1.1

Question: Which self-cleavage does the source give for A5U U132C here?
Answer: 1.4

Question: For G8A C35U, which self-cleavage is on record?
Answer: 0.52

Question: With A5U U70A as the variant, how does the self-cleavage read?
Answer: 1.23

Question: With G7A U108C as the variant, how does the self-cleavage read?
Answer: 0

Question: With A5U G21A as the variant, how does the self-cleavage read?
Answer: 1.25

Question: With G7U U12C as the variant, how does the self-cleavage read?
Answer: 0.79

Question: For A5U U122A, which self-cleavage is on record?
Answer: 1.48

Question: Which self-cleavage does the source give for C6U G44A here?
Answer: 1.34

Question: For A5U A116U, which self-cleavage is on record?
Answer: 0.35

Question: With U9A A69G as the variant, how does the self-cleavage read?
Answer: 1.27

Question: With G7A A52G as the variant, how does the self-cleavage read?
Answer: 1.25

Question: Which self-cleavage does the source give for G7U A117G here?
Answer: 1.7

Question: With G8C U122C as the variant, how does the self-cleavage read?
Answer: 1.12

Question: With C6U U120C as the variant, how does the self-cleavage read?
Answer: 0.33

Question: For G7A G74U, which self-cleavage is on record?
Answer: 0.2

Question: Which self-cleavage does the source give for A5U U49A here?
Answer: 1.79

Question: Which self-cleavage does the source give for U9A A23U here?
Answer: 1.59

Question: Which self-cleavage does the source give for U9A U43A here?
Answer: 0.83

Question: Which self-cleavage does the source give for G7A A68G here?
Answer: 1.92

Question: With G7A U131G as the variant, how does the self-cleavage read?
Answer: 1.7

Question: With G7A U131C as the variant, how does the self-cleavage read?
Answer: 1.36

Question: With A5U U37G as the variant, how does the self-cleavage read?
Answer: 1

Question: Which self-cleavage does the source give for A5U U37C here?
Answer: 0.72

Question: Which self-cleavage does the source give for G7A A116U here?
Answer: 0.33

Question: Which self-cleavage does the source give for G7A A117G here?
Answer: 0.51

Question: For G8A A117G, which self-cleavage is on record?
Answer: 2.27

Question: For U9C A90U, which self-cleavage is on record?
Answer: 2.21

Question: With C6U A11U as the variant, how does the self-cleavage read?
Answer: 1.34

Question: Which self-cleavage does the source give for C6U A134G here?
Answer: 1.38

Question: With C6U A27G as the variant, how does the self-cleavage read?
Answer: 2.16

Question: Which self-cleavage does the source give for U9C A135G here?
Answer: 1.5

Question: For U9C A135U, which self-cleavage is on record?
Answer: 0.57

Question: For A5U U12A, which self-cleavage is on record?
Answer: 0.69

Question: With G7A U124C as the variant, how does the self-cleavage read?
Answer: 1.03

Question: With G7U C77U as the variant, how does the self-cleavage read?
Answer: 1.9

Question: For A5U A118G, which self-cleavage is on record?
Answer: 0.83

Question: For G7A U87C, which self-cleavage is on record?
Answer: 1.25

Question: For C6U U100C, which self-cleavage is on record?
Answer: 1.18

Question: For U9C A129G, which self-cleavage is on record?
Answer: 1.37

Question: For U9C A129U, which self-cleavage is on record?
Answer: 0.98

Question: With U9C A129C as the variant, how does the self-cleavage read?
Answer: 0.68

Question: With G7A A62C as the variant, how does the self-cleavage read?
Answer: 1.41

Question: Which self-cleavage does the source give for U9C A47C here?
Answer: 1.02

Question: Which self-cleavage does the source give for U9C A47U here?
Answer: 1.1

Question: Which self-cleavage does the source give for U9C A47G here?
Answer: 1.08

Question: With U9C A114G as the variant, how does the self-cleavage read?
Answer: 0.64

Question: With G8A A60G as the variant, how does the self-cleavage read?
Answer: 1.53

Question: For G7U A111G, which self-cleavage is on record?
Answer: 0

Question: Which self-cleavage does the source give for U9A C88U here?
Answer: 0.82

Question: For C6A U49C, which self-cleavage is on record?
Answer: 0.74

Question: For U9C A91U, which self-cleavage is on record?
Answer: 1.49

Question: For G7U A90G, which self-cleavage is on record?
Answer: 2.21

Question: With C6A A89C as the variant, how does the self-cleavage read?
Answer: 1.1

Question: With G7U A92G as the variant, how does the self-cleavage read?
Answer: 1.66

Question: With A5U U102C as the variant, how does the self-cleavage read?
Answer: 1.69

Question: With G7A A114U as the variant, how does the self-cleavage read?
Answer: 0.06

Question: For G7U U49C, which self-cleavage is on record?
Answer: 1.71

Question: For A5U A110G, which self-cleavage is on record?
Answer: 0.29

Question: For U9C A92G, which self-cleavage is on record?
Answer: 0.82

Question: With U9C A92C as the variant, how does the self-cleavage read?
Answer: 2.26

Question: With C6U G74A as the variant, how does the self-cleavage read?
Answer: 0.46

Question: Which self-cleavage does the source give for U9A G15C here?
Answer: 0.57

Question: For C6U A89G, which self-cleavage is on record?
Answer: 1.13

Question: Which self-cleavage does the source give for A5G U97C here?
Answer: 1.25

Question: For C6A A111G, which self-cleavage is on record?
Answer: 0.08

Question: With A5G U120G as the variant, how does the self-cleavage read?
Answer: 0.39

Question: Which self-cleavage does the source give for U9A A55G here?
Answer: 0.81

Question: Which self-cleavage does the source give for U9A A111U here?
Answer: 0.19

Question: Which self-cleavage does the source give for G7U A116U here?
Answer: 0.38

Question: With U9C A59G as the variant, how does the self-cleavage read?
Answer: 1.32

Question: Which self-cleavage does the source give for U9A A30G here?
Answer: 0.98

Question: With U9A A98G as the variant, how does the self-cleavage read?
Answer: 0.34

Question: For U9C A24G, which self-cleavage is on record?
Answer: 1.33

Question: For G7A U70A, which self-cleavage is on record?
Answer: 1.94

Question: Which self-cleavage does the source give for U9C C76A here?
Answer: 0.07

Question: Which self-cleavage does the source give for U9C C76U here?
Answer: 0.15

Question: Which self-cleavage does the source give for U9A A134G here?
Answer: 1.66

Question: With U9A A18G as the variant, how does the self-cleavage read?
Answer: 1.79

Question: With U9A A118G as the variant, how does the self-cleavage read?
Answer: 0.9

Question: Which self-cleavage does the source give for G8A A95G here?
Answer: 1.52

Question: With G7A A64G as the variant, how does the self-cleavage read?
Answer: 1.18

Question: With G7U U70A as the variant, how does the self-cleavage read?
Answer: 1.27

Question: With C6A U127C as the variant, how does the self-cleavage read?
Answer: 0.49

Question: With G8A A22G as the variant, how does the self-cleavage read?
Answer: 1.39

Question: With G7A A56G as the variant, how does the self-cleavage read?
Answer: 1.78

Question: Which self-cleavage does the source give for U9A U130C here?
Answer: 1.33

Question: Which self-cleavage does the source give for C6U A69G here?
Answer: 1.05

Question: Which self-cleavage does the source give for U9C A36G here?
Answer: 0.96

Question: For A5U G15A, which self-cleavage is on record?
Answer: 1.04

Question: Which self-cleavage does the source give for C6U A135G here?
Answer: 2.17

Question: Which self-cleavage does the source give for C6U A47U here?
Answer: 0.51

Question: For U9C A86G, which self-cleavage is on record?
Answer: 1.18

Question: With G7A G79A as the variant, how does the self-cleavage read?
Answer: 0.11

Question: With A5U A27G as the variant, how does the self-cleavage read?
Answer: 2.05

Question: Which self-cleavage does the source give for U9A U49A here?
Answer: 1

Question: Which self-cleavage does the source give for U9A A11G here?
Answer: 0.92

Question: With U9A A91G as the variant, how does the self-cleavage read?
Answer: 0.37

Question: For U9C A18U, which self-cleavage is on record?
Answer: 1.36

Question: With U9C A18C as the variant, how does the self-cleavage read?
Answer: 0.9

Question: With G7A A89G as the variant, how does the self-cleavage read?
Answer: 0.61

Question: With G7A A22G as the variant, how does the self-cleavage read?
Answer: 1.42

Question: For G7A A22U, which self-cleavage is on record?
Answer: 1.51

Question: For C6U U38C, which self-cleavage is on record?
Answer: 1.48

Question: Which self-cleavage does the source give for A5U A82U here?
Answer: 0.38

Question: Which self-cleavage does the source give for U9C A66G here?
Answer: 0.9

Question: With C6U A52G as the variant, how does the self-cleavage read?
Answer: 0.59

Question: With A5U G138A as the variant, how does the self-cleavage read?
Answer: 1.71

Question: For A5U A67G, which self-cleavage is on record?
Answer: 1.6

Question: For A5U A67U, which self-cleavage is on record?
Answer: 0.99

Question: With U9C C46A as the variant, how does the self-cleavage read?
Answer: 1.74

Question: Which self-cleavage does the source give for U9C C46U here?
Answer: 1.03

Question: Which self-cleavage does the source give for A5G U124A here?
Answer: 0.54

Question: With A5G U124C as the variant, how does the self-cleavage read?
Answer: 0.58

Question: With U9A G80U as the variant, how does the self-cleavage read?
Answer: 0.2
